Reference: the supplement of paper PMC11865577

Tests used:
Assay in all cases: pull-down binding Z-score (relative to library population); higher = stronger binding
Conditions in all cases: RNA library: Library-2
[1] = test system: TO-N3-2 (biotin conjugate)
Outline: (§1)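 Streptavidin beads bearing 100 pmol of a biotin-conjugated small molecule were incubated for 60 min at 25 °C with 1 μg of heat-folded, Cy5- or Cy3-end-labelled RNA library in phosphate/NaCl/KCl buffer. Hot SDS eluted the RNA that stayed bound after three washes, and this RNA was hybridised for 20 h at 55.5 °C to a DNA barcode microarray. Binding was expressed as a Z-score against the library mean and standard deviation, after subtraction of a beads-only signal and trimmed averaging of barcoded replicate probes.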

[2] = test system: TO-3-N3 (biotin conjugate)
Outline: as §1

TO-N3 (biotin conjugate) = test system: TO-N3 (biotin conjugate)
Outline: as §1

[3] = test system: TO-3-N3-2 (biotin conjugate)
Outline: as §1

Row | Sequence | pull-down binding Z-score [1] | pull-down binding Z-score [2] | pull-down binding Z-score (TO-N3 (biotin conjugate)) | pull-down binding Z-score [3]
1 | GUGUACCUUCCUUACCCAGAUCCAUCAAGAAUCCUAGGGGCCGGCUGUUUUGUAGAUGAUAUCGUAAAAACAGAUGGUACAC [SHAPE_invivo_SARS-CoV-2_Multi_39_ComplexLevel_1] | 0.318 | 0.725 | 0.78 | -0.087
2 | GUGUAUGCUGCUGACCCUGCUAUGCACGCUGCUUCUGGUAAUCUAUUACUAGAUAAACGCACUACGUGCUUUUCAGUAGCUGCAC | 0.698 | 0.39 | 0.772 | 0.434
3 | GUGUUAUAACAC | -1.12 | -0.176 | -0.404 | -0.531
4 | GUGUUUAUGAUUACUUAGUUUCUACACAGGAGUUUAGAUAUAUGAAUUCACAGGGACUACUCCCACCCAAGAAUAGCAUAGAUGC | -0.079 | -0.215 | -0.0167 | 0.472
5 | GUUAAAAAUCUGAAUUCUUCUAGAGUUCCUGAUCUUCUGGUCUAAAC | 0.13 | -0.557 | -0.527 | 0.157
6 | GUUAAAAUAUGAC [SHAPE_invivo_SARS-CoV-2_Motif_271] | -0.892 | -0.672 | -0.93 | -0.534
7 | GUUAAAAUGUUUGAUGCUUACGUUAAUACGUUUUCAUCAACUUUUAAC | -1.35 | -1.02 | -1.54 | -0.247
8 | GUUAACUGGUUAUAAGAAACCUGCUUCAAGAGAGCUUAAAGUUAC | -0.112 | 0.0276 | -0.0514 | 0.092
9 | GUUAAUGCCUAUAUUAACCUUGACCAGGGCUUUAAC | -0.216 | 0.238 | -0.0902 | -0.198
10 | GUUACGACUAUUGUAUACCUUACAAUAGUGUAAC | 0.142 | 0.593 | 0.531 | 0.229
11 | GUUAGUACAACUACUAAC [SHAPE_invivo_SARS-CoV-2_Motif_138] | -0.963 | -0.759 | -1.06 | -0.398
12 | GUUAUAAAUGGAGACAGGUGGUUUCUCAAUCGAUUUACCACAACUCUUAAUGAC | -0.831 | -0.728 | -0.772 | 0.00889
13 | GUUAUGUUGAUACACCUAAU [DMSMaPseq_invitro_SARS-CoV-2_Motif_328] | -0.329 | -0.598 | -0.585 | -0.132
14 | GUUCAGAGUUUAUUCUAGUGCGAAUAAUUGCACUUUUGAAUAUGUCUCUCAGC | -0.426 | -0.177 | -0.295 | 0.063
15 | GUUCGGAUGCUCGAACUGCACCUCAUGGUCAUGUUAUGGUUGAGCUGGUAGCAGAACUCGAAGGCAUUCAGUAC [DMSMaPseq_invitro_SARS-CoV-2_Motif_11] | 1.96 | -0.665 | 0.002 | -0.307
16 | GUUCGUGUUGUUUUAGAUUUCAUCUAAACGAAC | -0.397 | -0.845 | -1.12 | -0.562

Row | Sequence | pull-down binding Z-score [1] | pull-down binding Z-score [2] | pull-down binding Z-score (TO-N3 (biotin conjugate)) | pull-down binding Z-score [3]
17 | GUUCUAAGUAUUGCUCCAAUAAUGUUCUCAAACAAAAUGGCGAGACUGGGAAAAGGGUAUAUGUUUGAGAGCAAGAGUAUGAAACUUAGAAC [IAV_invivo_PB1_2_Motif_18+IAV_invivo_PB1_2_Motif_18] | 1.25 | 0.629 | 1.12 | 0.578
18 | GUUCUCAGUACAGAGAAAUCUCCCUUUUGACAGAACAACCAUUAUGGCAGCAUUCAAUGGGAAUACAGAGGGGAGAACAUCUGACAUGAGGAC [IAV_invivo_NP_5_Motif_22+IAV_invivo_NP_5_Motif_22] | 1.23 | 0.104 | 1.12 | -0.129
19 | GUUCUCUAAACGAAC | -1.16 | -0.273 | -0.364 | -0.742
20 | GUUCUCUAUGAGAAC | -1.47 | 0.38 | 0.0284 | -0.504
21 | GUUCUUCUUCGUAAGAAC | -1.19 | -0.358 | -0.728 | -0.206
22 | GUUCUUGAGUGUAAUGUGAAAACUACCGAAGUUGUAGGAGACAUUAUACUUAAACCAGC | 0.162 | -0.133 | 0.111 | 0.0674
23 | GUUCUUGUAUGUGAGAAC [IAV_invivo_PA_3_Motif_23+IAV_invivo_PA_3_Motif_23] | -1.09 | -0.598 | -0.949 | -0.614
24 | GUUCUUUGAGAAC [IAV_invivo_PA_3_Motif_25+IAV_invivo_PA_3_Motif_25] | -0.894 | 0.296 | 0.0597 | -0.317
25 | GUUGAAGAAGUUACAAC | -0.168 | 0.355 | 0.365 | 0.148
26 | GUUGAAGUUGUUGAUAAGUACUUUGAUUGUUACGAUGGUGGCUGUAUUAAUGCUAACCAAGUCAUCGUCAACAACCUAGACAAAUCAGCUGGUUUUCCAUUUAAU | 0.567 | -0.27 | 0.0753 | -0.0144
27 | GUUGACAGGACACGAGUAACUCGUCUAUCUUCUGCAGGCUGCUUACGGUUUCGUCCGUGUUGCAGCCGAUCAUCAGC | 1.31 | -0.282 | 0.461 | -0.335
28 | GUUGAUGAGCCUGAAGAACAUGUCCAAAUUCACACAAUCGACGGUUCAUCCGGAGUUGUUAAUCCAGUAAUGGAACCAAUUUAUGAUGAACCGACGACGAC | 0.77 | 0.104 | 0.862 | -0.311
29 | GUUGAUUUUUGUGGAAAGGGCUAUCAUCUUAUGUCCUUCCCUCAGUCAGC [SHAPE_invitro_SARS-CoV-2_Motif_447] | -0.89 | -1.02 | -1.18 | -0.325
30 | GUUGCGUCACCAAAUGAAUGCAAC | -1.2 | -0.989 | -1.3 | -0.49
31 | GUUGCUGUACCUACAGGUUAUGUUGAUACACCUAAUAAUACAGAUUUUUCCAGAGUUAGUGCUAAACCACCGCCUGGAGAUCAAU [SHAPE_invitro_SARS-CoV-2_Multi_51_ComplexLevel_1] | 0.329 | 0.475 | 0.691 | -0.139
32 | GUUGGAUAAUGAUGCACUCAACAACAUUAUCAAC | -0.9 | -0.974 | -1.35 | -0.75
